# Data reported in patent US20070269486A1, “Methods and Devices for Reducing Tissue Damage After Ischemic Injury” (priority 2005, published 2007).
# Assay: retention of insulin bioactivity when delivered in PLGA
# Settings: delivered in poly(lactide-co-glycolide) (PLGA)
# Excerpt: Insulin is a hormone which improves glycolic metabolism and ATP production. Insulin also may act as a vasodilator, an anti-inflammatory, and an antiplatelet agent. Thus, insulin acts by several mechanisms to decrease infarct size by reducing inflammation, slowing the rate of ischemic necrosis, decreasing circulating levels of FFA and myocardial FFA uptake, restoring myocardial glycogen stores and improving contractile function. The insulin can be human, non-human, or synthetic and can be complete or fragments. Preferably the insulin is a stable, short acting form which is resistant to radiation. Insulin in its crystalline form may be used for improved resistance to radiation. When the insulin is combined with a polymer an agent may be added to preserve bioactivity. […] For substantially longer administration periods, an antacid or other agent may be used to maintain a required pH for continued bioactivity from a PLGA matrix.
# Protein or peptide drugs can be human, non-human, recombinant or synthetic and can be the full length native form or an active fragment thereof. Preferably the insulin is a stable, short acting form which is resistant to radiation. Insulin in its crystalline form may be used for improved resistance to radiation. When the insulin is combined with a polymer, an agent may be added to preserve bioactivity. […]
substance,measurement,value
insulin,period over which bioactivity is retained,at least 24 hours
